# How the values were obtained:
# [1] = tested on: SK-RC-52.hFAP tumour; assay: Therapy experiment in SK-RC-52.hFAP tumour bearing mice; conditions: 500 nmol/kg intravenously from day 8 for 6 consecutive days
# Description: SK-RC-52.hFAP xenografted tumors were implanted into female athymic BALB/C nu/nu mice (6-8 weeks of age) as described above, and allowed to grow to an average volume of 0.1 mL.
# Mice were randomly assigned into 8 therapy groups of 4 animals each (5 single-agent groups, 2 combination groups and vehicle group). […] L19-IL2 was diluted at 330 μg/mL in the appropriate formulation buffer and intravenously administered at the dose of 2.5 mg/kg.
# Mice in single-agent groups received daily injections of ESV6-ValCit-MMAE, QCOOH-ValCit-MMAE or L 19-IL2.
# Mice in combination groups received daily injections of ESV6-ValCit-MMAE on day 8,10 and 12 after tumor implantation, and of L 19-IL2 on day 9,11 and 13 after tumor implantation.
# Tumors were measured with an electronic caliper and animals were weighted daily. Tumor volume (mm^3) was calculated with the formula (long side, mm)×(short side, mm)×(short side, mm)×0.5.
# Prism 6 software (GraphPad Software) was used for data analysis (regular two-way ANOVA followed by Bonferroni test).
# [2] = tested on: SK-MEL-187 tumour; conditions: 250 nmol/kg daily for 7 consecutive days
# Description: SK-MEL-187 xenografted tumours were implanted into female athymic BALB/C nu/nu mice (6-8 weeks of age) as described above, and allowed to grow to an average volume of 0.1 mL. Mice were randomly assigned into therapy groups of 3 animals. […] Tumours were measured with an electronic caliper and animals were weighted daily. Tumour volume (mm^3) was calculated with the formula (long side, mm)×(short side, mm)×(short side, mm)×0.5 (FIG. 8). Prism 6 software (GraphPad Software) was used for data analysis (regular two-way ANOVA followed by Bonferroni test).
# [3] = tested on: SK-RC-52.hFAP and SK-RC-52.wt tumours; conditions: 250 nmol/kg, 6 hours after intravenous administration
# Description: (§3) SK-RC-52.hFAP (right flank) and SK-RC-52.wt (left flank) xenografted tumors were implanted into female athymic BALB/C nu/nu mice (6-8 weeks of age) as described above, and allowed to grow to an average volume of 0.1 mL.
# (§4) Frozen organs were cutted with a scalpel (50 mg), and suspended in 600 μL of 95:5 Acetonitrile/water (0.1% TFA). A solution of D8-MMAE in 3:97 Acetonitrile/water (0.1% FA; internal standard, 50 μL, 50 nM) was added. The samples were mechanically lysed with a Tissue Lyser II (Qiagen, 30 Hz shaking, 15 minutes). Plasma samples (50 μL) were added with a solution of D8-MMAE in 3:97 Acetonitrile/water (0.1% FA; internal standard, 50 μL, 50 nM) and proteins were precipitated by addition of 600 μL of 95:5 Acetonitrile/water (0.1% TFA). Proteins from both organs and plasma samples were pelleted by centrifugation and supernatants were dried with a vacuum centrifuge. Solid remanences were resuspended in 1 mL of 3:97 Acetonitrile/water (0.1% TFA) and solutions were cleaned up through a first purification step on HBL Oasis columns and a second purification on C18 Macro Spin Columns. Purified dried eluates were resuspended in 150 μL of 3:97 Acetonitrile/water (0.1% FA) and analyzed by MS. All samples were analysed by liquid chromatography-tandem mass spectrometry (LC-MS/MS) using a Q Exactive Mass Spectrometer fitted with an EASY-nLC 1000 (both Thermo Fisher Scientific). Analytes were resolved with an Acclaim PepMap RSLC C18, 50 m×150 mm, 2 m analytical column (Thermo Fisher Scientific) at a flow rate of 0.3 It/min by running a linear gradient from 3% to 50% ACN over 60 min. All buffers contained 0.1% formic acid. MS spectra were recorded in SIM scan mode with a resolution of 70000 and a maximum injection time of 100 ms. MS/MS were recorded at a resolution of 35000 and a maximum injection time of 250 ms.
# (§5) Raw files were then analysed with the Skyline software. MS1 areas of the two ions were used for quantification.
# [4] = in vivo; conditions: female, BALB/C nu/nu, mouse, iv, 250 nmol/kg
# Description: as §3, §4, §5
# [5] = tested on: HT-1080.hFAP and SK-RC-52.wt xenografts; assay: Ex vivo targeting experiment, HT-1080.hFAP and SK-RC-52.wt xenografts; type: in vivo, BALB/C nu/nu mice; conditions: 40 nmol intravenous, ex vivo organ images 1 h
# Description: (§1) SK-RC-52.hFAP, HT-1080.hFAP, SK-RC-52.wt cells were grown to 80% confluence and detached with Trypsin-EDTA 0.05%. Cells were re-suspended in HBSS medium to a final concentration of 5×10^7 cells/mL. […] SK-MEL-187 cells were grown to 80% confluence and detached with Trypsin-EDTA 0.05%. Cells were re-suspended in a 1:1 mixture of HBSS:Matrigel to a final concentration of 10×10^7 cells/mL.
# (§2) Mice bearing subcutaneous SK-RC-52.hFAP or HT-1080.hFAP tumors on the right flank and SK-RC-52.wt tumor on the left flank were injected intravenously with conjugate 30 (40 nmol in sterile PBS, pH 7.4). […] Cryostat sections ([…]) were cut and nuclei were stained with Fluorescence Mounting Medium (Dako Omnis, Agilent). Images were obtained using an Axioskop2 mot plus microscope (Zeiss) and analyzed by ImageJ 1.53 software.
# [6] = tested on: SK-RC-52.hFAP and SK-RC-52.wt xenografts; assay: Ex vivo targeting experiment, SK-RC-52.hFAP and SK-RC-52.wt xenografts; type: in vivo, BALB/C nu/nu mice; conditions: 40 nmol intravenous, ex vivo organ images 1 h
# Description: as §1, §2
smiles,measurement,setting,value
CC[C@H](C)[C@@H]([C@@H](CC(=O)N1CCC[C@H]1[C@H](OC)[C@@H](C)C(=O)N[C@H](C)[C@@H](O)c1ccccc1)OC)N(C)C(=O)[C@@H](NC(=O)[C@H](C(C)C)N(C)C(=O)OCc1ccc(NC(=O)[C@H](CCCNC(N)=O)NC(=O)[C@@H](NC(=O)CCCCCN2C(=O)CC(SC[C@H](NC(=O)[C@H](CC(=O)O)NC(=O)[C@H](CCCCN)NC(=O)[C@H](CC(=O)O)NC(=O)CCC(=O)Nc3cccc4c(C(=O)NCC(=O)N5CC(F)(F)C[C@H]5C#N)ccnc34)C(=O)O)C2=O)C(C)C)cc1)C(C)C (stereo partly shown) [ESV6-ValCit-MMAE],anti-tumour effect (mean tumour volume),[1],more potent anti-tumour effect as compared with QCOOH-ValCit-MMAE
same,anti-tumour effect (mean tumour volume),[2],more potent anti-tumour effect as compared with HABERKORN-ValCit-MMAE
same,"tolerability (changes in body weight), acute toxicity",[2],lower acute toxicity as compared to HABERKORN-ValCit-MMAE
same,accumulation in FAP-negative SK-RC-52 wild type tumours,[3],does not accumulate in FAP-negative SK-RC-52 wild type tumours
same,uptake at the tumour site (FAP-positive SK-RC-52),[3],18 % ID/g
same,uptake in healthy organs,[3],lower than 1 % ID/g
same,tissue uptake at 6 h,[4]; SK-RC-52.hFAP tumour (FAP-positive),18 %ID/g
same,tissue uptake at 6 h,[4]; healthy organs,< 1 %ID/g
"N#C[C@@H]1CC(F)(F)CN1C(=O)CNC(=O)c1ccnc2c(NC(=O)CCC(=O)N[C@@H](CC(=O)O)C(=O)N[C@@H](CCCCN)C(=O)N[C@@H](CC(=O)O)C(=O)N[C@@H](CSC3CC(=O)N(CCCCCNC(=O)c4ccc5c(c4)C(=O)OC54c5ccc(N)c(S(=O)(=O)O)c5Oc5c4ccc(N)c5S(=O)(=O)O)C3=O)C(=O)O)cccc12 (stereo in doubt) [conjugate 30, ESV6-Alexa Fluor 488]","targeting performance, HT-1080.hFAP and SK-RC-52.wt xenografts",[5],"rapidly, homogeneously and selectively localizes in vivo at the tumour which presents FAP expression 1 hour after the intravenous injection, with an excellent tumour-to-organs selectivity"
same,"targeting performance, SK-RC-52.hFAP and SK-RC-52.wt xenografts",[6],"localises rapidly, homogeneously and selectively in vivo at the tumour which presents FAP expression 1 hour after the intravenous injection, with an excellent tumour-to-organs selectivity"

# From patent US20230147962A1, “FIBROBLAST ACTIVATION PROTEIN LIGANDS FOR TARGETED DELIVERY APPLICATIONS” (PHILOCHEM AG, priority 2020, published 2023)
